Reference: US10280200B2, “Non-natural consensus albumin binding domains” (Janssen Biotech, Inc., priority 2012, dated 2019)

How the values were obtained:
[1] = Solubility after expression and purification from E. coli; type: physicochemical; settings: expressed and purified from E. coli
[2] = Stability on incubation in PBS at 37° C. for 28 days, SDS-PAGE and Mass Spectrometry; type: physicochemical; settings: PBS pH 7.4, 37° C.
Procedure: The FN3 domain-ABDCon fusion proteins were generated using standard cloning techniques. The amino acid sequence of one of the fusion proteins, Tencon-ABDCon is shown in SEQ ID NO: 41. Other FN3 domain-ABDCon fusion proteins made were Tencon25-ABDCon, 83-ABDCon and 71-ABDCon. These proteins were produced with c-terminal poly histidine tags and purified by a combination of nickel affinity and size exclusion chromatography using standard methods. Each purified molecule was incubated in PBS pH 7.4 at 37° C. for 28 days before analysis by SDS-PAGE and Mass Spectrometry.
However one peptide sequence, TIDEWL (SEQ ID NO: 43), is present N-terminal to 5 of these protein domains. […] This protein was expressed with an N-terminal poly histidine tag and purified to homogeneity using standard methods for nickel affinity chromatography and size exclusion chromatography. Purified ABDCon12 was incubated at 37° C. in PBS for 28 days and stability assessed by SDS-PAGE and mass spectrometry.

[3] = Thermal stability by differential scanning calorimetry (DSC) in PBS; type: physicochemical
Procedure: A second identical scan was completed on the sample in order to assess the reversibility of thermal folding/unfolding. Data was fit to a 2-state unfolding model in order to calculate the melting temperature.
The melting temperature of ABDCon12 was determined by differential scanning calorimetry using the procedures outlined in Example 2 above in order to investigate the mechanism of stabilization for this molecule.

[4] = target: human serum albumin (Homo sapiens, UniProt P02768); assay: Kinetics of binding to immobilized human serum albumin, ProteOn XPR-36 surface plasmon resonance; settings: read-out: KD (affinity) to human albumin, conditions specified herein
Procedure: Human (SEQ ID NO: 36), Rhesus (SEQ ID NO: 37), and murine (SEQ ID NO: 38) serum albumins were purchased from Sigma (Catalogue # A4327 for human, #A3559 for murine, and #A4297 for rhesus) and resuspended in PBS at different concentrations. Each serum albumin was directly immobilized on a ligand channel in the vertical orientation of a GLC chip via standard amine coupling at 2.1 μg/mL at pH 5.0 to obtain surfaces with ligand densities of 500-1000 resonance units. […] The dissociation phases for all concentrations were monitored for two hours at a flow rate of 100 μL/min using PBST (PBS, 0.005% Tween20) as running buffer. A sixth sample (buffer only) was injected to monitor the baseline stability. The surfaces were regenerated using 1 short pulse (18 μL) of 0.8% phosphoric acid.
The raw response data were first processed by subtracting the buffer only responses and the non-specific binding between the analytes and the chip. Processed data of all five concentrations were globally fit to a 1:1 simple langmuir binding model for each ligand surface.

[5] = Serum half-life / pharmacokinetics of fusion proteins in mice (MSD sandwich ELISA of serum); type: in vivo, BALB/c female mice
Procedure: Tencon25 is a protein scaffold based on a consensus sequence of a fibronectin type III (FN3) repeat protein having a sequence shown in residues 1-90 of SEQ ID NO: 39, and described in US2011/0274623A1. […] The resulting fusion protein has a polypeptide sequence shown in SEQ ID NO: 39. A poly-histidine tag was incorporated at the C-terminus for purification purposes. […] BALB/c female mice were split into 3 groups (N=3 group 1 non-treated control, and N=33 groups 2-3). Mice were treated with a single intravenous dose of the Tencon25-ABDCon fusion protein at 2 mg/kg. The dosing was based upon the weight of the animals on the day of administration. The mice were euthanized at the following time points after the injection: 10 min, 30 min, 1, 4, 6, hours, and 1, 2, 3, 7, 10, 14 days. Blood samples were taken from each animal via cardiac puncture. The blood samples were allowed to clot at room temperature for 30 minutes, but no longer than 1 hour. The blood samples were then centrifuged at approximately 3,500 rpm for 15 minutes. Serum samples were analyzed using a homogenous sandwich ELISA on the Mesoscale Discovery platform. Streptavidin-Gold plates (Mesoscale Discovery) were blocked for 1 hour with Superblock (TBS) Tween-20 (Thermo). Polyclonal anti-Tencon25 antibody was used for both capture (biotinylated) and detection (labeled with MSD Sulfo-Tag (Mesoscale Discovery)) at 0.625 μg/ml. The antigen and antibodies were added to the plates, which were incubated for 2 hours with vigorous shaking at RT. Plates were washed with TBS-T (Sigma) and MSD Read Buffer with Surfactant (Mesoscale Discovery) was added. The plates were read using the MSD Sector Imager 6000. Data was analyzed using GraphPad Prism. Previous studies have shown that a similar, unfused Tencon molecule is cleared from the bloodstream quickly with a serum half-life of approximately 20 minutes in mice.
These molecules were dosed into mice at 2 mg/kg as described above in previous studies and analyzed using identical methods as described for the Tencon25-ABDCon fusions.

ABDCon11: ABDCon mutant A37Y, SEQ ID NO: 34 (LKEAKEKAIEELKKAGITSDYYFDLINKAKTVEGVNYLKDEILKA; Non-natural albumin binding domain ABDCon11)
solubility of the expressed mutant [1]: insoluble

ABDCon12: ABDCon with TIDEWL added to the N-terminus, SEQ ID NO: 44 (TIDEWLLKEAKEKAIEELKKAGITSDYYFDLINKAKTVEGVNALKDEILKA; ABDCon12)
stability (degradation) after incubation [2]: degradation is occurring exclusively in the polyhistidine tag and not in the ABDCon12 sequence | melting temperature (thermal stability) [3]: 90.9 °C | increase of melting temperature compared to the original ABDcon molecule ([3]; DSC in PBS): 9.4 °

ABDCon: non-natural albumin binding domain consensus, SEQ ID NO: 21: […] (LKEAKEKAIEELKKAGITSDYYFDLINKAKTVEGVNALKDEILKA; not fully specified)
Kd [4]: 75 pM

B1: Tencon25-ABDCon: fusion of ABDCon to the c-terminus of Tencon25 FN3 scaffold by a (G4S)2 linker, SEQ ID NO: 39 (protein)
chain: MLPAPKNLVVSEVTEDSARLSWTAPDAAFDSFLIQYQESEKVGEAIVLTVPGSERSYDLTGLKPGTEYTVSIYGVKGGHRSNPLSAIFTTGGGGSGGGGSLKEAKEKAIEELKKAGITSDYYFDLINKAKTVEGVNALKDEILKA
modifications: Fusion protein Tencon25-ABDcon
AUC ([5]; 2 mg/kg intravenously): 2054.332 µg·h/mL | Clearance ([5]; 2 mg/kg intravenously): 22.93 mL/day/kg | T (½) ([5]; 2 mg/kg intravenously): 60.42 h | Volume of Distribution ([5]; 2 mg/kg intravenously): 0.0832873 L/kg | serum half-life ([5]; single intravenous dose 2 mg/kg): over 60 hours | stability (degradation) after incubation [2]: degraded

B2: Tencon-ABDCon: FN3 domain-ABDCon fusion protein, SEQ ID NO: 41 (protein)
chain: MLPAPKNLVVSEVTEDSLRLSWTAPDAAFDSFLIQYQESEKVGEAINLTVPGSERSYDLTGLKPGTEYTVSIYGVKGGHRSNPLSAEFTTGGGGSGGGGSLKEAKEKAIEELKKAGITSDYYFDLINKAKTVEGVNALKDEILKA
modifications: Tencon-ABDCon fusion protein
stability (degradation) after incubation [2]: degraded
